Substitutions are numbered along the chain they refer to. Names and notes keep the numbering of the source.
T1: human FcγRIIb receptor protein (R&D Systems) (human, UniProt P31994 46-217)
T1 construct: Bought protein injected over captured antibody in Biacore; also called CD32b
T1 sequence (looked up): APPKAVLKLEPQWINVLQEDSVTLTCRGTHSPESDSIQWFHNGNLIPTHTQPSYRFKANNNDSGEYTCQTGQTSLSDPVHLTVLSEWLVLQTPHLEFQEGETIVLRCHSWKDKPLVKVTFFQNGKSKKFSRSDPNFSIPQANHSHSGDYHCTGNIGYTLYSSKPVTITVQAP

T2: mFcγRIIb (Mus musculus, UniProt P08101)
T2 construct: extracellular region, C-terminal His- and GST-tag; also called mouse FcγRII
T2 sequence (receptor extracellular region, looked up): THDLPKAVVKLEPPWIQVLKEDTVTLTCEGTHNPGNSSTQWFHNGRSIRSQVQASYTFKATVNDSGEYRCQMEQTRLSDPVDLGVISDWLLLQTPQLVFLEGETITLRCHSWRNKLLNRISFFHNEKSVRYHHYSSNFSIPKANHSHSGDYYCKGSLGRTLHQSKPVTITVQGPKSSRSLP

T3: cynoFcγRIIb (Macaca fascicularis, UniProt A0A140HDP4)
T3 construct: extracellular region, C-terminal His- and GST-tag; also called cynomolgus monkey FcγRIIb
T3 sequence (receptor extracellular region): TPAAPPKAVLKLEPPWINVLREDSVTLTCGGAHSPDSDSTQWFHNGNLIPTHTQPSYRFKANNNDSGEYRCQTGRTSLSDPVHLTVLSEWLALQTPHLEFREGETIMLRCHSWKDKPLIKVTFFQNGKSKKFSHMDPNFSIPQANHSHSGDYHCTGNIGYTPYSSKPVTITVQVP

B1: H268E/L328Y/I332E (antibody, human IgG1, kappa)
heavy: EVQLVESGGGLVKPGGSLKLSCAASGYTFTSYVMHWVRQAPGKGLEWIGYINPYNDGTKYNEKFQGRVTISSDKSISTAYMELSSLRSEDTAMYYCARGTYYYGTRVFDYWGQGTLVTVSSASTKGPSVFPLAPSSKSTSGGTAALGCLVKDYFPEPVTVSWNSGALTSGVHTFPAVLQSSGLYSLSSVVTVPSSSLGTQTYICNVNHKPSNTKVDKKVEPKSCDKTHTCPPCPAPELLGGPSVFLFPPKPKDTLMISRTPEVTCVVVDVSEEDPEVKFNWYVDGVEVHNAKTKPREEQYNSTYRVVSVLTVLHQDWLNGKEYKCKVSNKAYPAPEEKTISKAKGQPREPQVYTLPPSREEMTKNQVSLTCLVKGFYPSDIAVEWESNGQPENNYKTTPPVLDSDGSFFLYSKLTVDKSRWQQGNVFSCSVMHEALHNHYTQKSLSLSPGK
light: DIVMTQSPATLSLSPGERATLSCRSSKSLQNVNGNTYLYWFQQKPGQSPQLLIYRMSNLNSGVPDRFSGSGSGTEFTLTISSLEPEDFAVYYCMQHLEYPITFGAGTKLEIKRTVAAPSVFIFPPSDEQLKSGTASVVCLLNNFYPREAKVQWKVDNALQSGNSQESVTEQDSKDSTYSLSSTLTLSKADYEKHKVYACEVTHQGLSSPVTKSFNRGEC
notes: HuAM4G7 anti-CD19 IgG1 (m1) with these Fc substitutions, EU index; copies: 2 + 2
B2: A330K (antibody, human IgG1, kappa)
heavy: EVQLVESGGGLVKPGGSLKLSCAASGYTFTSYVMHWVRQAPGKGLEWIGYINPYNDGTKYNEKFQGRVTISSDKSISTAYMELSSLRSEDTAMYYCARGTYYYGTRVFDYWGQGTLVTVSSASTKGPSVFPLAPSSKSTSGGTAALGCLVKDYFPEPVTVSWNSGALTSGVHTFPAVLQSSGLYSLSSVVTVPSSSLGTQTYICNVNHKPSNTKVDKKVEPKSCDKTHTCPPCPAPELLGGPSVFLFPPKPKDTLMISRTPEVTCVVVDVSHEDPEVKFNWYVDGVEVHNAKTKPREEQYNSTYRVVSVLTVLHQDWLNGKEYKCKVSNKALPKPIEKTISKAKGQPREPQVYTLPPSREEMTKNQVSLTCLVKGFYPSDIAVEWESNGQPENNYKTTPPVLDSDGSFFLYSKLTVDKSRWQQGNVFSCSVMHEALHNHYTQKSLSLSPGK
light: B1 light
notes: HuAM4G7 anti-CD19 IgG1 (m1) with this Fc substitution, EU index; copies: 2 + 2
B3: A327D/L328Y/I332E (antibody, human IgG1, kappa)
heavy: B1 heavy with E272H, A331D
light: B1 light
notes: as for B1
B4: K326D/L328Y/I332E (antibody, human IgG1, kappa)
heavy: B1 heavy with E272H, K330D
light: B1 light
notes: as for B1
B5: S267A/L328Y/I332E (antibody, human IgG1, kappa)
heavy: B1 heavy with S271A, E272H
light: B1 light
notes: as for B1
B6: K326W (antibody, human IgG1, kappa)
heavy: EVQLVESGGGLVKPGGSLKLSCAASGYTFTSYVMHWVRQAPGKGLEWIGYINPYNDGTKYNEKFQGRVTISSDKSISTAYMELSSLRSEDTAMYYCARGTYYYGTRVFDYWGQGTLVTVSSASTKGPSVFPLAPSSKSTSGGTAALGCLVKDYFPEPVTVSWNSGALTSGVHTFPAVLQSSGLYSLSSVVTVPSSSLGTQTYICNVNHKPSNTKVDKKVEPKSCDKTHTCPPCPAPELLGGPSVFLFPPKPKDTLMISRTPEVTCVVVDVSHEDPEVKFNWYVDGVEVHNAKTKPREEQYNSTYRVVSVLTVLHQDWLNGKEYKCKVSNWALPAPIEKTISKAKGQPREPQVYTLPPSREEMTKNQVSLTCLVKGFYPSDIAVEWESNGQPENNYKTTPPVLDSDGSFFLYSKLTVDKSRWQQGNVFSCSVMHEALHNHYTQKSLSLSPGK
light: B1 light
notes: as for B2
B7: S267A/H268D/L328Y (antibody, human IgG1, kappa)
heavy: B1 heavy with S271A, E272D, E336I
light: B1 light
notes: as for B1
B8: K326A (antibody, human IgG1, kappa)
heavy: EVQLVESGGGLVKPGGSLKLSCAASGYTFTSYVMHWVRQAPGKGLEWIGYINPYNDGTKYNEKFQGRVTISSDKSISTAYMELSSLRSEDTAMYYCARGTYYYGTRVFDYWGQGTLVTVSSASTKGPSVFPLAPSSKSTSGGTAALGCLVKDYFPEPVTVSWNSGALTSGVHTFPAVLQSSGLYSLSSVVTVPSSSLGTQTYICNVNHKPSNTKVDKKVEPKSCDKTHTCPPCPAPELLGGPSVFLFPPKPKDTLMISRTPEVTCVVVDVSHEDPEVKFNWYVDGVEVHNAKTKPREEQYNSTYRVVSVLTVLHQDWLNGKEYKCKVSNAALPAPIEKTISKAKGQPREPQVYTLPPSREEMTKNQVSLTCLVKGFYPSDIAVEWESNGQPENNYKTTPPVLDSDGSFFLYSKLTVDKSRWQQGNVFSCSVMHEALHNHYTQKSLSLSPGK
light: B1 light
notes: as for B2
B9: S239D/A327D/L328Y (antibody, human IgG1, kappa)
heavy: B1 heavy with S243D, E272H, A331D, E336I
light: B1 light
notes: as for B1
B10: L234W/L328Y/I332E (antibody, human IgG1, kappa)
heavy: B1 heavy with L238W, E272H
light: B1 light
notes: as for B1
B11: H268D/L328Y/I332E (antibody, human IgG1, kappa)
heavy: B1 heavy with E272D
light: B1 light
notes: as for B1
B12: A330S (antibody, human IgG1, kappa)
heavy: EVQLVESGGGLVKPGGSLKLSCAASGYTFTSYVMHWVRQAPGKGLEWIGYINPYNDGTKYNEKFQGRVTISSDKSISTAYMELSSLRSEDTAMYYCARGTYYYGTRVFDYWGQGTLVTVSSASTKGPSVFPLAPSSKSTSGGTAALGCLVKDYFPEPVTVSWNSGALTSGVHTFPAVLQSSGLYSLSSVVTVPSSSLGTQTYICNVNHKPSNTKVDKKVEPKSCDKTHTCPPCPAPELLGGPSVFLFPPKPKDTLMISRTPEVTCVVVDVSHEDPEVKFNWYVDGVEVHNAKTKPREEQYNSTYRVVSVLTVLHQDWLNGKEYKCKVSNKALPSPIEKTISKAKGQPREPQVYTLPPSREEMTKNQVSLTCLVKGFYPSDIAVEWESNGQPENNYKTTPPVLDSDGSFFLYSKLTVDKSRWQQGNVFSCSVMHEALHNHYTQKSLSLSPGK
light: B1 light
notes: as for B2
B13: L235F/H268D/L328Y (antibody, human IgG1, kappa)
heavy: B1 heavy with L239F, E272D, E336I
light: B1 light
notes: as for B1
B14: L328Y/I332E (antibody, human IgG1, kappa)
heavy: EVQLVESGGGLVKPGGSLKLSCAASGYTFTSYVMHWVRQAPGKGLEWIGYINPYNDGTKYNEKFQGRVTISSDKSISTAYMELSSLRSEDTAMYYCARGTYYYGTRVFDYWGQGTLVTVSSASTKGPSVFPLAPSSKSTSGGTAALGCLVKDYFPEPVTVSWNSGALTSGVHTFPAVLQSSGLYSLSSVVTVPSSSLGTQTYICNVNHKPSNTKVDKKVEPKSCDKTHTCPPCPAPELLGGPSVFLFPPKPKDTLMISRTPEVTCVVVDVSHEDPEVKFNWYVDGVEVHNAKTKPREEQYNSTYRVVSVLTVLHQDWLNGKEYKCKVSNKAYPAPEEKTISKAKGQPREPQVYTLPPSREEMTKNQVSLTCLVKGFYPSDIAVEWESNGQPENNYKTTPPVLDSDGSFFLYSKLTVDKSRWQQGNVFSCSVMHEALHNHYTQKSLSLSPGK
light: B1 light
notes: as for B1
B15: L234W/S239D/L328Y (antibody, human IgG1, kappa)
heavy: B1 heavy with L238W, S243D, E272H, E336I
light: B1 light
notes: as for B1
B16: H268D/K326D/L328Y (antibody, human IgG1, kappa)
heavy: B1 heavy with E272D, K330D, E336I
light: B1 light
notes: as for B1
B17: L235F/S239D/L328Y (antibody, human IgG1, kappa)
heavy: B1 heavy with L239F, S243D, E272H, E336I
light: B1 light
notes: as for B1
B18: K326E (antibody, human IgG1, kappa)
heavy: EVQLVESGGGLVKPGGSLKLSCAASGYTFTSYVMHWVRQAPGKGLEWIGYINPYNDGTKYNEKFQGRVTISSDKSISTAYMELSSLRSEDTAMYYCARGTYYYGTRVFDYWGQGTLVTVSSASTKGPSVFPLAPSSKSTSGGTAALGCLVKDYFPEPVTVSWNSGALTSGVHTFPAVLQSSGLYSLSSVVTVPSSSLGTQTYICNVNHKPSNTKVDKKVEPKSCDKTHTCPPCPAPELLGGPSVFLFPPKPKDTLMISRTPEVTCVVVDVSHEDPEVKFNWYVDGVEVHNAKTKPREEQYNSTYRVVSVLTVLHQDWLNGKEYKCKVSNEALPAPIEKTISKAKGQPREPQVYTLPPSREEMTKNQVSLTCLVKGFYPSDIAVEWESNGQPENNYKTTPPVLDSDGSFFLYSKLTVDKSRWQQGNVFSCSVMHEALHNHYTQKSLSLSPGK
light: B1 light
notes: as for B2
B19: L235F/L328Y/I332E (antibody, human IgG1, kappa)
heavy: B1 heavy with L239F, E272H
light: B1 light
notes: as for B1

biological target: T1, human FcγRIIb receptor protein (R&D …); assay: SPR

Binder	Fold vs WT IgG1	Kd	binding result
B1	8.53 fold	172 nM	–
B2	1.55 fold	947 nM	–
B3	2.31 fold	636 nM	–
B4	2.65 fold	553 nM	–
B5	13.5 fold	109 nM	–
B6	3.04 fold	483 nM	–
B7	10.7 fold	137 nM	–
B8	–	–	no binding
B9	11.9 fold	123 nM	–
B10	6.32 fold	232 nM	–
B11	4.89 fold	300 nM	–
B12	0.0635 fold	23100 nM	–
B13	3.97 fold	370 nM	–
B14	2.08 fold	705 nM	–
B15	32.8 fold	44.8 nM	–
B16	18.6 fold	78.9 nM	–
B17	6.82 fold	215 nM	–
B18	6.09 fold	241 nM	–
B19	3.31 fold	443 nM	–

biological target: T2, mFcγRIIb; assay: SPR
Protocol: (§1) Variants were screened for receptor affinity using Biacore™ technology, also referred to as Biacore herein, a surface plasmon resonance (SPR) based technology for studying biomolecular interactions in real time. SPR measurements were performed using a Biacore 3000 instrument (Biacore, Piscataway, N.J.). A protein A/G (Pierce Biotechnology) CM5 biosensor chip (Biacore) was generated using a standard primary amine coupling protocol. All measurements were performed using HBS-EP buffer (10 mM HEPES pH 7.4, 0.15 M NaCl, 3 mM EDTA, 0.005% vol/vol surfactant P20, Biacore). Antibodies at 20 nM or 50 nM in HBS-EP buffer were immobilized on the protein A/G surface and FcγRs were injected. After each cycle, the surface was regenerated by injecting glycine buffer (10 mM, pH 1.5). Data were processed by zeroing time and response before the injection of FcγR and by subtracting appropriate nonspecific signals (response of reference channel and injection of running buffer). Kinetic analyses were performed by global fitting of binding data with a 1:1 Langmuir binding model using BIAevaluation software (Biacore).
(§2) Variant antibodies were tested for their affinity to mouse or cynologous monkey FcγRs using Biacore SPR as described above. Specifically, antibodies were first immobilized on a protein A/G chip to high density, and then followed by injections of the extracellular domain of the mouse or cynologous monkey FcγR of interest. Both association and dissociation phases were tracked in real time using the Biacore technology.

Binder	Fold vs WT IgG1 (Kd)
B1	1.5 fold
B2	0.296 fold
B3	1.24 fold
B4	1.87 fold
B5	2.63 fold
B6	0.429 fold
B7	32.4 fold
B8	0.164 fold
B9	45.3 fold
B10	0.617 fold
B11	1.28 fold
B12	0.054 fold
B13	6.82 fold
B14	0.434 fold
B15	44.1 fold
B16	19.4 fold
B17	31.2 fold
B18	0.605 fold
B19	0.843 fold

biological target: T3, cynoFcγRIIb; assay: SPR
Protocol: as §1, §2

Binder	Fold vs WT IgG1 (Kd)
B1	4.16 fold
B2	2.02 fold
B3	1.02 fold
B4	4.78 fold
B5	3.65 fold
B6	0.078 fold
B7	3.26 fold
B8	1.36 fold
B9	1.31 fold
B10	2.04 fold
B11	4.08 fold
B12	0.255 fold
B13	3.17 fold
B14	4.6 fold
B15	5.92 fold
B16	9.38 fold
B17	5.2 fold
B18	1.03 fold
B19	4.11 fold

Source: patent US20130315910A1 (Xencor, published 2013)
